Biological target: T1, C5b6 with bound C7 and C8, assembled on the SPR chip (human | , UniProt P01031 19-673; P01031 752-1676; P13671 22-934; P10643 23-843; P07357 31-584; …)
T1 construct: complement C5 beta chain, as part of C5b; complement C5 alpha' chain of C5b; complement component C6; complement component C7; complement component C8 alpha chain; complement component C8 beta chain; complement component C8 gamma chain; Formed by injecting C7 (4 nM) and then C8 (8 nM) over C5b6 captured on the anti-C5 tool antibody; source: assembled on the SPR chip from bought C5b6, C7 and C8 …
Test: SPR; MAC assembly assay, Biacore 8K, HBS-EP+; anti-C5 antibody amine coupled to a CM5 chip, C5 or C5b6 captured at 4 nM; C7, C8 and C9 flowed over in succession at 4, 8 and 50 nM, also with single components left out
Conditions: both partners purified

binding result: binds
B1: Complement C9 (natural protein)
chain: not shown
notes: complement component C9; Unlabelled C9 as used in SPR; source: bought: Complement Technology (Comptech)
